From patent US20180066068A9, “ANTI-PSYK ANTIBODY MOLECULES AND USE OF SAME FOR SYK-TARGETED THERAPY” (Millennium Pharmaceuticals, Inc., priority 2014, published 2018)

B1: MIL81-1-8 3H3/3L2: recombinant molecular clone of MIL81-1-8; heavy chain SEQ ID NO:4, light chain SEQ ID NO:6, from transfected HEK293 cells (antibody)
heavy: METGLRWLLLVAVLKGVQCQSVEESGGRLVTPGTPLTLTCTVSGIDLNSYIMSWVRQAPGKGLEWIGIISRRGNTYYASWPKGRFTISKTSTTVDLKITSPTTEDTATYFCARAYLYTSGTMSVWGPGTLVTVSSGQPKAPSVFPLAPCCGDTPSSTVTLGCLVKGYLPEPVTVTWNSGTLTNGVRTFPSVRQSSGLYSLSSVVSVTSSSQPVTCNVAHPATNTKVDKTVAPSTCSKPTCPPPELLGGPSVFIFPPKPKDTLMISRTPEVTCVVVDVSQDDPEVQFTWYINNEQVRTARPPLREQQFNSTIRVVSTLPIAHQDWLRGKEFKCKVHNKALPAPIEKTISKARGQPLEPKVYTMGPPREELSSRSVSLTCMINGFYPSDISVEWEKNGKAEDNYKTTPAVLDSDGSYFLYSKLSVPTSEWQRGDVFTCSVMHEALHNHYTQKSISRSPGK
light: MDTRAPTQLLGLLLLWLPGARCADIVMTQTPSPVEAAVGGTVTIKCQASESISSYLSWYQQKPGQPPKLLIYRASTLVSGVPSRFKGSGSGTDFTLTISDLECADAATYYCQHTYFGSDYVGGFGGGTEVVVKGDPVAPTVLIFPPAADQVATGTVTIVCVANKYFPDVTVTWEVDGTTQTTGIENSKTPQNSADCTYNLSSTLTLTSTQYNSHKEYTCKVTQGTTSVVQSFNRGDC

Columns and labels:
[1] = test system: DLBCL cell lines; assay: Inhibition of cellular proliferation; assay type: cell-based; details: expanded set of relevant models; 72 hours of treatment, DLBCL cell lines (FIG. 21)
[2] = test system: pSYK, pBLNK, cleaved caspase 3 in PHTX-95L primary DLBCL xenografts; assay: Pharmacodynamics by IHC in PHTX-95L xenografts; assay type: in vivo, NOD SCID mice
[3] = test system: pSYK in TMD8 lymphoma cell line xenograft; assay: Pharmacodynamics by IHC in TMD8 xenografts; assay type: in vivo, mice; details: single oral dose 120 mg/kg, two hours after dosing; MIL81-1-8 hybridoma and molecular clone antibodies
[4] = biological target: T1, pSYK in human DLBCL biopsies (Homo sapiens, UniProt P43405); assay: IHC of human DLBCL biopsies, AMP HQ versus Leica IHC; assay type: binding
T1 construct: from tissue; host or cells: FFPE human DLBCL biopsies; one normal lymph node
Description: Antibodies were incubated with OmniMap goat anti-rabbit HRP secondary antibody (Ventana Medical Systems) for 16 minutes. A Discovery AMP TSA HQ kit (Ventana Medical Systems) was applied for 16 minutes followed by 16 minute incubation with the Discovery anti-HQ HRP (Ventana Medical Systems) antibody. The staining was then developed with the 3,3′-diaminobexidine (DAB) substrate map system. Slides were counterstained with hematoxylin and imaged using the Aperio whole slide scanning system (XT). A comparative staining was obtained with the MIL81-1-8 3H3/3L2 antibody using an automated protocol on a Leica automated stainer. pSYK protein levels in Formalin-Fixed, Paraffin-Embedded tissues were incubated with MIL81-1-8 3H3/3L2 antibody ([…]) for 30 minutes on the Leica Microsystems (Wetzlar, Germany) BOND RX automated stainer. Antibodies were incubated with a rabbit anti-goat HRP secondary antibody (Leica Laboratories) and developed with the 3,3′-diaminobexidine (DAB) substrate map system. Slides were counterstained with hematoxylin and imaged using the Aperio whole slide scanning system (XT). The staining of the AMP HQ and the Leica IHC were compared to determine staining specificity. […] Each was scored either positive (membrane stain was found) or negative (no membrane staining was found). […]

[5] = biological target: T2, phosphatase-treated GST-pSYK (de-pSYK) (Homo sapiens, UniProt P43405); assay: Western blot on phosphatase-treated GST-pSYK; assay type: binding; details: GST-tagged recombinant SYK
T2 construct: made in house; host or cells: baculovirus-infected Sf9 cells
Description: Some of the autophosphorylated GST-pSYK was treated with T-cell protein phosphatase (TC-PTP, New England Biolabs), a tyrosine-specific phosphatase, for confirming specificity of antibodies to pSYK.
(§1) Western blots were prepared from SDS-PAGE gels of GST-pSYK (IVK), and phosphatase-treated GST-pSYK. Each hybridoma multiclone supernatant was tested for binding to the blots. […] By this method, multiclone hybridoma supernatants with good binding of phosphorylated relative to dephosphorylated pSYK were 1, 2, 19, 24, 39, 49, 52, 53, 55, 59, 63, 70, 81, 84, 85, 87, 98 and 99.

[6] = biological target: T3, pSYK in DLBCL patient samples and normal lymph node (Homo sapiens, UniProt P43405); assay: IHC of molecular clone versus hybridoma antibody on human biopsies; assay type: binding
T3 construct: from tissue; host or cells: FFPE human DLBCL biopsies; one normal lymph node
Description: The molecular clone antibody also was assessed by IHC. The immunohistochemical staining of antibody purified from MIL81-1-8 hybridoma supernatant as described above was compared to staining by MIL81-1-8 3H3/3L2 clone antibody purified from culture supernatant of transiently co-transfected HEK293 cells (also one-step purification-protein A chromatography followed by buffer exchange).
Both the molecular clone and the hybridoma antibodies stained HBL1 to a moderate extent and strongly stained PHTX95L untreated samples. […] The molecular clone antibody was compared to the hybridoma antibody for staining biopsies of human tissues. There were three DLBCL patient samples and one normal lymph node sample (non-tumorigenic) from a patient. […] If nuclear staining would be considered off-target and lead to a determination of absence of pSYK, then a version of MIL81-1-8, with less nuclear relative to cytoplasmic or membranous staining could lead to fewer false negative results.

[7] = biological target: T4, GST-pSYK (IVK) (Homo sapiens, UniProt P43405); assay: Western blot on autophosphorylated GST-pSYK (IVK); assay type: binding; details: GST-tagged recombinant SYK, compared with untreated
T4 construct: made in house; host or cells: baculovirus-infected Sf9 cells
Description: GST-hSYK was expressed in baculovirus-infected Sf9 cells and affinity-purified by glutathione Sepharose affinity resin. For in vitro kinase (IVK) pSYK, isolated GST-SYK was incubated in 1 mM ATP, 1 mM MgCl2 for 1 hr at room temperature to allow autophosphorylation to occur. The reaction was stopped by the addition of 5 mM EDTA and a small aliquot removed for treatment with 0.1% SDS, stored […] and used for AlphaScreen analysis or stored at −80° without further purification. This sample was later used at Epitomics for screening assays of hybridoma. An aliquot of the sample was analyzed by SDS-PAGE for Western blotting using anti-SYK (Cell Signaling Technologies #2712) and Epitomics 2175-1. The majority of the recombinant material was confirmed to be phosphorylated at Y525/526.
as §1

[8] = biological target: T5, SYK in lysates of WSU-DLCL2 cells (Homo sapiens, UniProt P43405); assay: Western blot of cell lysates, WSU-DLCL2; assay type: binding; details: lysate of stimulated cells
T5 construct: endogenous in cells; host or cells: WSU-DLCL2 cells, unstimulated or stimulated (BCR crosslinking or pervanadate)
Description: Additional cell culture material was used to screen antibodies by utilizing WSU-DLCL2 (human diffuse large B-cell lymphoma) cells that were stimulated through crosslinking the B-cell receptor (AffiniPure F(ab′)^2 fragment of goat anti-human Ig, cat #109-006-127, JacksonImmuno Research Laboratories, Inc., West Grove, Pa.) or with pervanadate treatment (25 μL into 1 mL of cells of the following; 50 μL Na3VO4, 5.5 μL 9.1M H2O2(31%), 944.5 μl H2O) over a 60 min time course. At each time point cells were collected and lysed in MPER (Thermo: 7850) containing both a protease inhibitor cocktail I (Calbiochem:539131-10VL) and 1× HALT a generic protein phosphatase inhibitor cocktail (Thermo: 78428). Also LY10 (OCI-LY10) cells were used as lysates without or with stimulation with cross-linking or pervanadate as described above. Ly10 cells have weak SYK expression compared to WSUDLCL2 cells (FIG. 1). […] (BLNK was detected in every sample by CST 3575 and SC15345 antibodies, with the pBLNK detection paralleling the pSYK detection in the crosslinked and pervanadate-treated cells.) One conclusion of this study extended the nucleic acid results, and found weak pSYK signal in the Ly10 crosslinked sample. […]

[9] = single dose 120 mg/kg, IHC of tumors harvested over time

| Molecule | EC50 [1] [nM] | cleaved caspase 3 expression [2, 9] | pBLNK (pBLNK65) expression time course [2, 9] | pSYK (pSYK525) expression time course [2, 9] | pSYK stain in PHTX95L xenograft after treatment ([2]; single oral dose 120 mg/kg, two hours after dosing, MIL81-1-8 hybridoma and molecular clone antibodies) | pSYK stain in TMD8 xenograft after treatment [3] | Samples deemed positive (membrane stain) out of 82 ([4]; AMP HQ amplified IHC, 1:10,000 dilution) | Samples deemed positive (membrane stain) out of 82 ([4]; Leica IHC, 1:3200 dilution) | Western blot staining of phosphatase-treated recombinant SYK [5] | Overall IHC comparison with hybridoma antibody ([6]; cell pellets, xenografts and human biopsies) | Nuclear staining intensity compared to hybridoma antibody ([6]; human biopsies) | Western blot staining of IVK-treated recombinant SYK [7] | Binding to SYK on western blot, stimulated WSU-DLCL2 cells [8] |
| --- | --- | --- | --- | --- | --- | --- | --- | --- | --- | --- | --- | --- | --- |
| Cn1cc(-c2nc(N[C@@H]3CCCC[C@@H]3N)c(F)c3c2C(=O)NC3)cn1 [Compound A, 6-((1R,2S)-2-Aminocyclohexylamino)-7-fluoro-4-(1-methyl-1H-pyrazol-4-yl)-1H-pyrrolo[3,4-c]pyridin-3(2H)-one] | 25 to 4000 | increase in expression | Time dependent inhibition | Time dependent inhibition | diminished | diminished | – | – | – | – | – | – | – |
| B1 | – | – | – | – | – | – | 34 | 24 | slightly stained | slightly better than the hybridoma antibody | remarkably reduced | stained the IVK-treated SYK band more intensely than the untreated SYK band | stained the band |
